# From PMC9348906 (Science (New York, N.Y.), 2022)
# Values joined by “and” are separate entries in the source; they are usually repeats but may differ in a detail not shown here. Equal values may be shown once. Read-outs that look alike come from different tables or passages of the source.
# B1: NUP358^1–832 (domain or fragment, human, UniProt P49792 1-832, looked up)
# chain: MRRSKADVERYIASVQGSTPSPRQKSMKGFYFAKLYYEAKEYDLAKKYICTYINVQERDPKAHRFLGLLYELEENTDKAVECYRRSVELNPTQKDLVLKIAELLCKNDVTDGRAKYWLERAAKLFPGSPAIYKLKEQLLDCEGEDGWNKLFDLIQSELYVRPDDVHVNIRLVEVYRSTKRLKDAVAHCHEAERNIALRSSLEWNSCVVQTLKEYLESLQCLESDKSDWRATNTDLLLAYANLMLLTLSTRDVQESRELLQSFDSALQSVKSLGGNDELSATFLEMKGHFYMHAGSLLLKMGQHSSNVQWRALSELAALCYLIAFQVPRPKIKLIKGEAGQNLLEMMACDRLSQSGHMLLNLSRGKQDFLKEIVETFANKSGQSALYDALFSSQSPKDTSFLGSDDIGNIDVREPELEDLTRYDVGAIRAHNGSLQHLTWLGLQWNSLPALPGIRKWLKQLFHHLPHETSRLETNAPESICILDLEVFLLGVVYTSHLQLKEKCNSHHSSYQPLCLPLPVCKQLCTERQKSWWDAVCTLIHRKAVPGNVAKLRLLVQHEINTLRAQEKHGLQPALLVHWAECLQKTGSGLNSFYDQREYIGRSVHYWKKVLPLLKIIKKKNSIPEPIDPLFKHFHSVDIQASEIVEYEEDAHITFAILDAVNGNIEDAVTAFESIKSVVSYWNLALIFHRKAEDIENDALSPEEQEECKNYLRKTRDYLIKIIDDSDSNLSVVKKLPVPLESVKEMLNSVMQELEDYSEGGPLYKNGSLRNADSEIKHSTPSPTRYSLSPSKSYKYSPKTPPRWAEDQNSLLKMICQQVEAIKKEMQELKLNS
# B2: NUP358^NTD (domain or fragment, human, UniProt P49792 1-752, looked up)
# chain: MRRSKADVERYIASVQGSTPSPRQKSMKGFYFAKLYYEAKEYDLAKKYICTYINVQERDPKAHRFLGLLYELEENTDKAVECYRRSVELNPTQKDLVLKIAELLCKNDVTDGRAKYWLERAAKLFPGSPAIYKLKEQLLDCEGEDGWNKLFDLIQSELYVRPDDVHVNIRLVEVYRSTKRLKDAVAHCHEAERNIALRSSLEWNSCVVQTLKEYLESLQCLESDKSDWRATNTDLLLAYANLMLLTLSTRDVQESRELLQSFDSALQSVKSLGGNDELSATFLEMKGHFYMHAGSLLLKMGQHSSNVQWRALSELAALCYLIAFQVPRPKIKLIKGEAGQNLLEMMACDRLSQSGHMLLNLSRGKQDFLKEIVETFANKSGQSALYDALFSSQSPKDTSFLGSDDIGNIDVREPELEDLTRYDVGAIRAHNGSLQHLTWLGLQWNSLPALPGIRKWLKQLFHHLPHETSRLETNAPESICILDLEVFLLGVVYTSHLQLKEKCNSHHSSYQPLCLPLPVCKQLCTERQKSWWDAVCTLIHRKAVPGNVAKLRLLVQHEINTLRAQEKHGLQPALLVHWAECLQKTGSGLNSFYDQREYIGRSVHYWKKVLPLLKIIKKKNSIPEPIDPLFKHFHSVDIQASEIVEYEEDAHITFAILDAVNGNIEDAVTAFESIKSVVSYWNLALIFHRKAEDIENDALSPEEQEECKNYLRKTRDYLIKIIDDSDSNLSVVKKLPVPLESVKEMLNSVMQE
# How the values were obtained:
# Test in all cases: SEC-MALS
# [1] = target: C. thermophilum coat nup complex (CNC) (C. thermophilum) (UniProt G0S2X1)
# SEC-MALS [2] = target: the molecule itself
# SEC-MALS [3] = target: the molecule itself; remark: listed apart in the source
# Sequence of C. thermophilum coat nup complex (CNC) (C. thermophilum) (G0S2X1 whole entry, looked up, one chain of several): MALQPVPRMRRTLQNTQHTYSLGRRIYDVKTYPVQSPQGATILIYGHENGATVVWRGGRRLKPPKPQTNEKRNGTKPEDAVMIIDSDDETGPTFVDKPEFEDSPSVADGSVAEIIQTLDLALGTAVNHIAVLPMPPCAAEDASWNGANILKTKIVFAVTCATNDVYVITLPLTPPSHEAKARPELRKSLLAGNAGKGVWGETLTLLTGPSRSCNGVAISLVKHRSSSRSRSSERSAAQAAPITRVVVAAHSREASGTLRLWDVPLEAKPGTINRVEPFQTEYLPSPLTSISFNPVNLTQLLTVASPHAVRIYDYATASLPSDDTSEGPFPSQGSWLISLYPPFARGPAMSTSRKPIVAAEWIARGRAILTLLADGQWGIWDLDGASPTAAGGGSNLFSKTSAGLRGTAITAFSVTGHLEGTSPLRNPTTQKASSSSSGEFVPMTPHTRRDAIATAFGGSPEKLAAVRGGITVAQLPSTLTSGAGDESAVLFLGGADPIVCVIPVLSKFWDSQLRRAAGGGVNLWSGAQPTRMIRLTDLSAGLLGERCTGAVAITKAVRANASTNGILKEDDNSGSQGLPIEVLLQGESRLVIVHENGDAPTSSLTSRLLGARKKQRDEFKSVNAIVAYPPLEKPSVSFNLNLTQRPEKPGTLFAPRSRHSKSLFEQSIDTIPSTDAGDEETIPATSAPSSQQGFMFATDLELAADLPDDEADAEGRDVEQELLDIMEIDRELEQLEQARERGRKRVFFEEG
Molecule,stoichiometry N (SEC-MALS [2]),further results
C. thermophilum cytoplasmic filament nup complex (CFNC) (from UniProt G0S4F3 1-882; G0SBS8 1-1481; G0SBQ3 1-678; G0SAK3 1-993),,stoichiometry N [1]: 2
"RWAEDQNSLLKMICQQVEAIKKEMQELKLNS (domain or fragment, human, UniProt P49792 802-832, looked up) [NUP358^OE]",2 and 4,
B1,4 and 5,
B2,,stoichiometry N (SEC-MALS [3]): 2
